Here are results for 1 substance from paper PMC3382138, “On the Structure and Function of the Phytoene Desaturase CRTI from Pantoea ananatis, a Membrane-Peripheral and FAD-Dependent Oxidase/Isomerase” (PLoS ONE, 2012).

Data set [1] relates to Cc1cc2nc3c(=O)[nH]c(=O)nc-3n(C[C@H](O)[C@H](O)[C@H](O)COP(=O)(O)OP(=O)(O)OC[C@H]3O[C@@H](n4cnc5c(N)ncnc54)[C@H](O)[C@@H]3O)c2cc1C. Description: purified protein. The note with it: phytoene 7 µM (7.5 µM in Figure 4 legend) in phosphatidyl-choline liposomes, aerobic, phosphate pH 8.0, 100 mM NaCl, 37 °C, 12 min, varied: cofactor.
Data set [2] relates to CC(C)=CCC/C(C)=C/CC/C(C)=C/CC/C(C)=C/C=C\C=C(/C)CC/C=C(\C)CC/C=C(\C)CCC=C(C)C. Description: purified protein. As to conditions: 150 µM FAD, phytoene 0.8-9.2 µM (apparent bulk concentration) in phosphatidyl-choline liposomes, aerobic, phosphate pH 8.0, 100 mM NaCl, 37 °C, 12 min, not saturated.

As usually defined, the Km is the substrate concentration at which the rate is half of its maximum.

In the case of CRTI (CRTI-His6) (Pantoea ananatis), the Km is 50.5 ± 2.9 µM in data set [1] and 16.7 ± 1.9 µM in data set [2].
